B1: RCN2, Q14257 (peptide)
chain: HDDYFYHDEL

The binders below were run against SCRIB_3, Q14160 (assay: holdup assay). Settings: plain residues with an end cap or a label only (N-terminal biotin on a linker: ado-ado).
Set-up: key: below the threshold = too weak to quantify, mostly under pKd 3.1 to 4

Chain of SCRIB_3, Q14160 (Q14160 999-1103): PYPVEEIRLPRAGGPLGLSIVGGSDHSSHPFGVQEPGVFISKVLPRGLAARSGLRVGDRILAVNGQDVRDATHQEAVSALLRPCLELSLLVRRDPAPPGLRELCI

| Binder | pKd |
| --- | --- |
| B1 | 3.81 |

These binders were tested against T1, APBA3_1, O96018 (assay: holdup assay). Settings: plain residues with an end cap or a label only (N-terminal biotin on a linker: ado-ado).
T1 sequence (O96018 389-490, limits assumed, looked up): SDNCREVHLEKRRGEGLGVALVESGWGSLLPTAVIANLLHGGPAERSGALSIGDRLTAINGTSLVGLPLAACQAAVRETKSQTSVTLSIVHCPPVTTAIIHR
Set-up: key: below the threshold = too weak to quantify, mostly under pKd 3.1 to 4

| Binder | pKd |
| --- | --- |
| B1 | below the threshold |

Each binder was assayed against GRIP2_4, Q9C0E4 (assay: holdup assay). Settings: plain residues with an end cap or a label only (N-terminal biotin on a linker: ado-ado).
Chain of GRIP2_4, Q9C0E4 (Q9C0E4 446-548): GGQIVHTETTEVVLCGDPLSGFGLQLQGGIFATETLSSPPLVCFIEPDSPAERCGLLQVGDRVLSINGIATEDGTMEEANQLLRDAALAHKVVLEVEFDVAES
Set-up: key: below the threshold = too weak to quantify, mostly under pKd 3.1 to 4

| Binder | pKd |
| --- | --- |
| B1 | below the threshold |

Each binder was assayed against PDZRN4_1, Q6ZMN7 (assay: holdup assay). Settings: plain residues with an end cap or a label only (N-terminal biotin on a linker: ado-ado).
Chain of PDZRN4_1, Q6ZMN7 (Q6ZMN7 213-318): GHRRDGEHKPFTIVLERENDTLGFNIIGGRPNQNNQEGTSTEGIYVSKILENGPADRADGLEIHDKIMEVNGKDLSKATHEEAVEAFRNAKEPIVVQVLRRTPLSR
Set-up: key: below the threshold = too weak to quantify, mostly under pKd 3.1 to 4

| Binder | pKd |
| --- | --- |
| B1 | below the threshold |

Each binder was assayed against PICK1, Q9NRD5 (assay: holdup assay). Settings: plain residues with an end cap or a label only (N-terminal biotin on a linker: ado-ado).
Chain of PICK1, Q9NRD5 (Q9NRD5 17-115): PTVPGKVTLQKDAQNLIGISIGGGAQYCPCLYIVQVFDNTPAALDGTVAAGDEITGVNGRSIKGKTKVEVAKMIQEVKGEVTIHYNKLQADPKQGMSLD
Set-up: key: below the threshold = too weak to quantify, mostly under pKd 3.1 to 4

| Binder | pKd |
| --- | --- |
| B1 | below the threshold |

Each binder was assayed against LNX1_3, Q8TBB1 (assay: holdup assay). Settings: plain residues with an end cap or a label only (N-terminal biotin on a linker: ado-ado).
Chain of LNX1_3, Q8TBB1 (Q8TBB1 500-596): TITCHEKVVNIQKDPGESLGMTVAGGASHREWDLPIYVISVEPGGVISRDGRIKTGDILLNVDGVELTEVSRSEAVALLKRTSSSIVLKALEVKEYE
Set-up: key: below the threshold = too weak to quantify, mostly under pKd 3.1 to 4

| Binder | pKd |
| --- | --- |
| B1 | below the threshold |

Each binder was assayed against LNX1_1, Q8TBB1 (assay: holdup assay). Settings: plain residues with an end cap or a label only (N-terminal biotin on a linker: ado-ado).
Chain of LNX1_1, Q8TBB1 (Q8TBB1 261-371): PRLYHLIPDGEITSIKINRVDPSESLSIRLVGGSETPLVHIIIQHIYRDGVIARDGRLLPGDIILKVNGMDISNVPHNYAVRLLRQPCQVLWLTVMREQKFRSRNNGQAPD
Set-up: key: below the threshold = too weak to quantify, mostly under pKd 3.1 to 4

| Binder | pKd |
| --- | --- |
| B1 | below the threshold |

What follows are binders tested against Inadl_1, Q8NI35 (assay: holdup assay). Settings: plain residues with an end cap or a label only (N-terminal biotin on a linker: ado-ado).
Chain of Inadl_1, Q8NI35 (Q8NI35 113-229): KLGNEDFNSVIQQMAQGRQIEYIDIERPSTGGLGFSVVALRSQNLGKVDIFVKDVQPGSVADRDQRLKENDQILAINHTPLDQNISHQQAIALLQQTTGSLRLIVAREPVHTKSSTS
Set-up: key: below the threshold = too weak to quantify, mostly under pKd 3.1 to 4

| Binder | pKd |
| --- | --- |
| B1 | below the threshold |

The binders below were run against GIPC2, Q8TF65 (assay: holdup assay). Settings: plain residues with an end cap or a label only (N-terminal biotin on a linker: ado-ado).
Chain of GIPC2, Q8TF65 (Q8TF65 112-203): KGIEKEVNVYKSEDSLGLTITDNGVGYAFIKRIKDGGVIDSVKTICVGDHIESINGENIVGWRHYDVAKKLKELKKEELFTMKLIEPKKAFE
Set-up: key: below the threshold = too weak to quantify, mostly under pKd 3.1 to 4

| Binder | pKd |
| --- | --- |
| B1 | below the threshold |

Each binder was assayed against DLG5_1, Q8TDM6 (assay: holdup assay). Settings: plain residues with an end cap or a label only (N-terminal biotin on a linker: ado-ado).
Chain of DLG5_1, Q8TDM6 (Q8TDM6 617-713): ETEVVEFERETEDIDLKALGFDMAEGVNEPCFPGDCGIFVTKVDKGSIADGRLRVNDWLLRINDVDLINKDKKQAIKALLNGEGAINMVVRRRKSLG
Set-up: key: below the threshold = too weak to quantify, mostly under pKd 3.1 to 4

| Binder | pKd |
| --- | --- |
| B1 | below the threshold |

These binders were tested against IL16_4, Q14005 (assay: holdup assay). Settings: plain residues with an end cap or a label only (N-terminal biotin on a linker: ado-ado).
Chain of IL16_4, Q14005 (Q14005 1229-1329): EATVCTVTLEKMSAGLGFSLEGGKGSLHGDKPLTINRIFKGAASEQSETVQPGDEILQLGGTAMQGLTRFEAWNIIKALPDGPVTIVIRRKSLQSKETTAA
Set-up: key: below the threshold = too weak to quantify, mostly under pKd 3.1 to 4

| Binder | pKd |
| --- | --- |
| B1 | below the threshold |

The binders below were run against MAGI1_2, Q96QZ7 (assay: holdup assay). Settings: plain residues with an end cap or a label only (N-terminal biotin on a linker: ado-ado).
Chain of MAGI1_2, Q96QZ7 (Q96QZ7 456-580): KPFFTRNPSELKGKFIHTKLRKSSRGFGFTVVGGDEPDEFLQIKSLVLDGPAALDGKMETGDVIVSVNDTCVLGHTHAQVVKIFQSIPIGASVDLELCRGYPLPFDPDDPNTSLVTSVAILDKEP
Set-up: key: below the threshold = too weak to quantify, mostly under pKd 3.1 to 4

| Binder | pKd |
| --- | --- |
| B1 | below the threshold |

The binders below were run against T2, RADIL, Q96JH8 (assay: holdup assay). Settings: plain residues with an end cap or a label only (N-terminal biotin on a linker: ado-ado).
T2 sequence (Q96JH8 971-1071, limits assumed, looked up): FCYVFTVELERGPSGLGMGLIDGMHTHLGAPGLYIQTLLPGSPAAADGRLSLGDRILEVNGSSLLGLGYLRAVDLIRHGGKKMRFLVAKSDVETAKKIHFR
Set-up: key: below the threshold = too weak to quantify, mostly under pKd 3.1 to 4

| Binder | pKd |
| --- | --- |
| B1 | 3.5 |

These binders were tested against SNX27, Q96L92 (assay: holdup assay). Settings: plain residues with an end cap or a label only (N-terminal biotin on a linker: ado-ado).
Set-up: key: below the threshold = too weak to quantify, mostly under pKd 3.1 to 4

| Binder | pKd |
| --- | --- |
| B1 | 3.77 |

What follows are binders tested against T3, GRIP1_3, Q9Y3R0 (assay: holdup assay). Settings: plain residues with an end cap or a label only (N-terminal biotin on a linker: ado-ado).
T3 sequence (Q9Y3R0 247-346, limits assumed, looked up): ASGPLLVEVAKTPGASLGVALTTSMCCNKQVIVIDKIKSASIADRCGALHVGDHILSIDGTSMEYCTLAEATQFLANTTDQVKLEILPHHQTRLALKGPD
Set-up: key: below the threshold = too weak to quantify, mostly under pKd 3.1 to 4

| Binder | pKd |
| --- | --- |
| B1 | below the threshold |

These binders were tested against T4, PDZRN3_1, Q9UPQ7 (assay: holdup assay). Settings: plain residues with an end cap or a label only (N-terminal biotin on a linker: ado-ado).
T4 sequence (Q9UPQ7 244-349, limits assumed, looked up): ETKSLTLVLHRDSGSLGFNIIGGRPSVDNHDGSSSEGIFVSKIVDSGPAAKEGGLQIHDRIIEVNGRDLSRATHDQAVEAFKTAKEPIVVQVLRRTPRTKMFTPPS
Set-up: key: below the threshold = too weak to quantify, mostly under pKd 3.1 to 4

| Binder | pKd |
| --- | --- |
| B1 | below the threshold |

What follows are binders tested against MAGI2_6, Q86UL8 (assay: holdup assay). Settings: plain residues with an end cap or a label only (N-terminal biotin on a linker: ado-ado).
Chain of MAGI2_6, Q86UL8 (Q86UL8 1141-1229): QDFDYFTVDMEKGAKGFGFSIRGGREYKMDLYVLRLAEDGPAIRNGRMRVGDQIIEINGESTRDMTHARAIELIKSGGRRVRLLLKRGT
Set-up: key: below the threshold = too weak to quantify, mostly under pKd 3.1 to 4

| Binder | pKd |
| --- | --- |
| B1 | 3.9 |

Each binder was assayed against T5, SNTB1, Q13884 (assay: holdup assay). Settings: plain residues with an end cap or a label only (N-terminal biotin on a linker: ado-ado).
T5 sequence (Q13884 107-205, limits assumed, looked up): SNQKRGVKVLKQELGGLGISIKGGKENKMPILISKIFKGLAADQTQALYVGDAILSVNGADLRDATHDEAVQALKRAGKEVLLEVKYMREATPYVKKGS
Set-up: key: below the threshold = too weak to quantify, mostly under pKd 3.1 to 4

| Binder | pKd |
| --- | --- |
| B1 | below the threshold |

These binders were tested against DLG4_3, P78352 (assay: holdup assay). Settings: plain residues with an end cap or a label only (N-terminal biotin on a linker: ado-ado).
Chain of DLG4_3, P78352 (P78352 306-403): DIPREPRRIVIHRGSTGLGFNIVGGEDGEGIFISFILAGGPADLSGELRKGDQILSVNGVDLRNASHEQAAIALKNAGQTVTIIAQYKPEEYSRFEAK
Set-up: key: below the threshold = too weak to quantify, mostly under pKd 3.1 to 4

| Binder | pKd |
| --- | --- |
| B1 | 3.53 |

These binders were tested against LNX1_2, Q8TBB1 (assay: holdup assay). Settings: plain residues with an end cap or a label only (N-terminal biotin on a linker: ado-ado).
Chain of LNX1_2, Q8TBB1 (Q8TBB1 371-470): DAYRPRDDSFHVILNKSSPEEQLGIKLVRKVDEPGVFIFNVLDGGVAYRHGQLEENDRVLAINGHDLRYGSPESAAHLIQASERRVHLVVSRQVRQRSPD
Set-up: key: below the threshold = too weak to quantify, mostly under pKd 3.1 to 4

| Binder | pKd |
| --- | --- |
| B1 | below the threshold |

The binders below were run against MAGI1_1, Q96QZ7 (assay: holdup assay). Settings: plain residues with an end cap or a label only (N-terminal biotin on a linker: ado-ado).
Chain of MAGI1_1, Q96QZ7 (Q96QZ7 1-106): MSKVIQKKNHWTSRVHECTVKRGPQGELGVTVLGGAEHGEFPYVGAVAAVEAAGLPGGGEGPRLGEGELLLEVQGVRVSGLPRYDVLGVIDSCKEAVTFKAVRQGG
Set-up: key: below the threshold = too weak to quantify, mostly under pKd 3.1 to 4

| Binder | pKd |
| --- | --- |
| B1 | below the threshold |

What follows are binders tested against Inadl_6, Q8NI35 (assay: holdup assay). Settings: plain residues with an end cap or a label only (N-terminal biotin on a linker: ado-ado).
Chain of Inadl_6, Q8NI35 (Q8NI35 1058-1167): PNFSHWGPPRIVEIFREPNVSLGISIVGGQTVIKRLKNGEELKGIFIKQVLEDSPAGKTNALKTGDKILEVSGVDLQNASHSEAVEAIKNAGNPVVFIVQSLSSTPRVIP
Set-up: key: below the threshold = too weak to quantify, mostly under pKd 3.1 to 4

| Binder | pKd |
| --- | --- |
| B1 | below the threshold |

These binders were tested against T6, TX1BP3, O14907 (assay: holdup assay). Settings: plain residues with an end cap or a label only (N-terminal biotin on a linker: ado-ado).
T6 sequence (O14907 10-122, limits assumed, looked up): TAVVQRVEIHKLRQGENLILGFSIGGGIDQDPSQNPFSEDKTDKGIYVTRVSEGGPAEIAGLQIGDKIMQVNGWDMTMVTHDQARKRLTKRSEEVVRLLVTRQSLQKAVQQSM
Set-up: key: below the threshold = too weak to quantify, mostly under pKd 3.1 to 4

| Binder | pKd |
| --- | --- |
| B1 | 3.9 |

Each binder was assayed against T7, GRIP1_5, Q9Y3R0 (assay: holdup assay). Settings: plain residues with an end cap or a label only (N-terminal biotin on a linker: ado-ado).
T7 sequence (Q9Y3R0 568-668, limits assumed, looked up): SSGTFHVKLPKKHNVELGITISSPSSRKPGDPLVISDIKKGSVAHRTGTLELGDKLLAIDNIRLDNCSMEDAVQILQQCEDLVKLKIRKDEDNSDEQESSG
Set-up: key: below the threshold = too weak to quantify, mostly under pKd 3.1 to 4

| Binder | pKd |
| --- | --- |
| B1 | below the threshold |

The binders below were run against GORASP1, Q9BQQ3 (assay: holdup assay). Settings: plain residues with an end cap or a label only (N-terminal biotin on a linker: ado-ado).
Chain of GORASP1, Q9BQQ3 (Q9BQQ3 1-208): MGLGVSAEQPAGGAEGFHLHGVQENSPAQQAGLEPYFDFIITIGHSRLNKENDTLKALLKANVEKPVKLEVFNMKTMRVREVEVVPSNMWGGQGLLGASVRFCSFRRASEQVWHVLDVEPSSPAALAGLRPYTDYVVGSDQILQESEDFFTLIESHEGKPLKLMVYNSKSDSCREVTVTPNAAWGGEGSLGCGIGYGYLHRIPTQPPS
Set-up: key: below the threshold = too weak to quantify, mostly under pKd 3.1 to 4

| Binder | pKd |
| --- | --- |
| B1 | below the threshold |

What follows are binders tested against T8, DFNB31_1, Q9P202 (assay: holdup assay). Settings: plain residues with an end cap or a label only (N-terminal biotin on a linker: ado-ado).
T8 sequence (Q9P202 135-233, limits assumed, looked up): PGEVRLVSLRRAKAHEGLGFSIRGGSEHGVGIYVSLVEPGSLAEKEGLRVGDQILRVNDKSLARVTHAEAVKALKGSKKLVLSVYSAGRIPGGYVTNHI
Set-up: key: below the threshold = too weak to quantify, mostly under pKd 3.1 to 4

| Binder | pKd |
| --- | --- |
| B1 | below the threshold |

These binders were tested against FRMPD4, Q14CM0 (assay: holdup assay). Settings: plain residues with an end cap or a label only (N-terminal biotin on a linker: ado-ado).
Chain of FRMPD4, Q14CM0 (Q14CM0 67-160): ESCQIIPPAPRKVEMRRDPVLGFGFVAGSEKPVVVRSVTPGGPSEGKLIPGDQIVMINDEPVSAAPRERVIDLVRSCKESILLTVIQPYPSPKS
Set-up: key: below the threshold = too weak to quantify, mostly under pKd 3.1 to 4

| Binder | pKd |
| --- | --- |
| B1 | 3.94 |

The binders below were run against MAGI2_5, Q86UL8 (assay: holdup assay). Settings: plain residues with an end cap or a label only (N-terminal biotin on a linker: ado-ado).
Chain of MAGI2_5, Q86UL8 (Q86UL8 915-1017): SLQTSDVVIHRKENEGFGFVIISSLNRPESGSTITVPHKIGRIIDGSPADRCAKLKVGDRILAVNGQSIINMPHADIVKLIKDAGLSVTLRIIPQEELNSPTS
Set-up: key: below the threshold = too weak to quantify, mostly under pKd 3.1 to 4

| Binder | pKd |
| --- | --- |
| B1 | below the threshold |

Each binder was assayed against GRIP2_7, Q9C0E4 (assay: holdup assay). Settings: plain residues with an end cap or a label only (N-terminal biotin on a linker: ado-ado).
Chain of GRIP2_7, Q9C0E4 (Q9C0E4 934-1023): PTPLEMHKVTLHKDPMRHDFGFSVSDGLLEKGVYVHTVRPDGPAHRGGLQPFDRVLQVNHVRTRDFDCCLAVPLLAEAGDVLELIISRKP
Set-up: key: below the threshold = too weak to quantify, mostly under pKd 3.1 to 4

| Binder | pKd |
| --- | --- |
| B1 | below the threshold |

From paper PMC9482650, “Quantitative fragmentomics allow affinity mapping of interactomes” (Nature Communications, 2022)
